In the assay the target is ATP binding cassette protein E1 (ABCE1), endogenous in 293T/17 cells (human (endogenous in 293T/17)) (UniProt P61221). The assay is described as follows: proximity ligation.

The record followed here is publication doi:10.1101/183848.

On to “FIV Gag, wild type, expressed from the FIV pro- env- provirus (natural protein)”, for which the Gag-ABCE1 PLA spots per cell (PLA spots per cell) was 34.9.
